No end group written: not given here.
T1: His-tagged P3028 (human, also: His-tag, terminus and sequence not given here)
T1 construct: in solution at 0.5 ug/mL over the peptide cards; found with anti-His-tag antibody and rabbit anti-mouse peroxidase (rampo); also called PGE73; not shown: His-tag
T1 peptide: VFDEFKPLVEEPQNLIK


Target: T1, His-tagged P3028
Assay: PEPSCAN chip ELISA, His-P3028 in solution;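 note: score is the raw OD at 405 nm from peroxidase colour with ABTS, imaged by CCD camera before and after staining, with wells showing air bubbles set to zero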
Description: After washing, the peroxidase substrate 2,2′-azine-di-3-ethylbenzthiazoline sulfonate (ABTS) and 2 μL of 3% H2O2 were added. The binding capacity of the mAb was measured as a color development at 405 nm (optical density, OD405). The color development was quantified with a charge-coupled device (CCD)—camera and an image processing system.
The OD405-values obtained by a CCD-camera was considered as raw data values (“rampo values,” “rampo units,” or “rampo scores”). […] First the CCD-camera made a picture of the card before peroxidase coloring and then again a picture after the peroxidase coloring. […] These values were copied into an excel file and labeled as a raw data file. One follow-up manipulation was allowed. Sometimes a well can contain an air-bubble resulting in a false-positive value. If manual inspection of the cards detect an air-bubble the value are set to 0 for that well.

Binder	RAMPO Score
KKLDTFFVKLSLFTYR [SEQ ID NO 459]	340 rampo score
KKLDTFFVQLSLFTER [SEQ ID NO 469]	330 rampo score
KTLDTFFVKLSLFTER [SEQ ID NO 468]	331 rampo score
KWLDTFFVKLSLFTER [SEQ ID NO 490]	304 rampo score
KKLDTFFVKWSLFTER [SEQ ID NO 482]	316 rampo score
KKLNTFFVKLSLFTER [SEQ ID NO 498]	296 rampo score
KKLDTFFVKLSLFQER [SEQ ID NO 493]	301 rampo score
KKLDTFDVKLSLFTER [SEQ ID NO 492]	301 rampo score
KKLDTFFVHLSLFTER [SEQ ID NO 488]	306 rampo score
KKLDTFFVKLKLFTER [SEQ ID NO 473]	323 rampo score
KKLDTHFVKLSLFTER [SEQ ID NO 466]	332 rampo score
KKLDTFFVKLSPFTER [SEQ ID NO 497]	297 rampo score
KKLDTFFVKLRLFTER [SEQ ID NO 464]	333 rampo score
KKLDTFFVKLALFTER [SEQ ID NO 477]	318 rampo score
YKLDTFFVKLSLFTER [SEQ ID NO 483]	315 rampo score
KKLDTFFVKLSYFTER [SEQ ID NO 475]	320 rampo score
KKLLTFFVKLSLFTER [SEQ ID NO 491]	303 rampo score
KKLRTFFVKLSLFTER [SEQ ID NO 480]	317 rampo score
KDLDTFFVKLSLFTER [SEQ ID NO 461]	335 rampo score
KKLDLFFVKLSLFTER [SEQ ID NO 484]	311 rampo score
KKLDTFFVKLSLFAER [SEQ ID NO 489]	305 rampo score
KKLDTFYVKLSLFTER [SEQ ID NO 463]	334 rampo score
KKLDTFFAKLSLFTER [SEQ ID NO 495]	299 rampo score
KKLDTFFVKLILFTER [SEQ ID NO 505]	289 rampo score
KCLDTFFVKLSLFTER [SEQ ID NO 499]	295 rampo score
KKLKTFFVKLSLFTER [SEQ ID NO 512]	274 rampo score

Binder	RAMPO Score
KKLDTFFVKLPLFTER [SEQ ID NO 470]	328 rampo score
KKLDTCFVKLSLFTER [SEQ ID NO 462]	335 rampo score
KALDTFFVKLSLFTER [SEQ ID NO 485]	309 rampo score
KKLDTFFTKLSLFTER [SEQ ID NO 496]	298 rampo score
KKLDTFFVKLWLFTER [SEQ ID NO 472]	324 rampo score
KKLDTFFVSLSLFTER [SEQ ID NO 511]	274 rampo score
KKLDTRFVKLSLFTER [SEQ ID NO 486]	309 rampo score
KSLDTFFVKLSLFTER [SEQ ID NO 510]	281 rampo score
FKLDTFFVKLSLFTER [SEQ ID NO 465]	332 rampo score
KILDTFFVKLSLFTER [SEQ ID NO 467]	331 rampo score
KKLDTFFVKCSLFTER [SEQ ID NO 508]	283 rampo score
KKLDDFFVKLSLFTER [SEQ ID NO 500]	295 rampo score
KKLDTFFVKLSLFTKR [SEQ ID NO 471]	324 rampo score
KKLDTFFVKLSLFTHR [SEQ ID NO 478]	318 rampo score
KKLDTFFVMLSLFTER [SEQ ID NO 509]	283 rampo score
KKLDTFFVKKSLFTER [SEQ ID NO 506]	285 rampo score
WKLDTFFVKLSLFTER [SEQ ID NO 507]	284 rampo score
KKLDTKFVKLSLFTER [SEQ ID NO 460]	337 rampo score
KKLDTFFVKHSLFTER [SEQ ID NO 502]	293 rampo score
KVLDTFFVKLSLFTER [SEQ ID NO 481]	317 rampo score
KKLDTFFVKLDLFTER [SEQ ID NO 474]	322 rampo score
KKLDTFFVKLSLYTER [SEQ ID NO 503]	291 rampo score
KKLHTFFVKLSLFTER [SEQ ID NO 479]	317 rampo score
KKLDFFFVKLSLFTER [SEQ ID NO 504]	290 rampo score
KYLDTFFVKLSLFTER [SEQ ID NO 494]	301 rampo score
KKLDIFFVKLSLFTER [SEQ ID NO 501]	293 rampo score

From patent US20170298096A1 (CANIMGUIDE THERAPEUTICS, published 2017)
